Assay results reported in the nanobody polyreactivity screen of Harvey et al. (2022).

Assay: yeast display, Sf9 membrane polyspecificity reagent, FACS + sequencing; frameworks hold sequencing errors
In short: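 Nanobodies came from a synthetic yeast display library in Saccharomyces cerevisiae BJ5465, induced with galactose for 36–48 hours and stained for 1 hour at 4 °C with 10% biotinylated, detergent-solubilized Sf9 membrane reagent. Cells were enriched on streptavidin microbeads and then FACS-sorted, with low and high (top ~1%) gates set on anti-HA fluorescence for expression and streptavidin fluorescence for reagent binding. Each polyreactivity label reflects the gate a clone came from. Genes were amplified by colony PCR, sequenced by MiSeq 2 × 250 and filtered by CDR length.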

Row | Sequence | polyreactivity (PSR sort gate)
1 | QVQLVESGGGLVQAGGSLRLSCAASGRTFRINAMGWYRQAPGKERELVAAITRGDTNYADSVKGRFTISRDNAKNTVYLQMNSLKPEDTAVYYCNADLSVRYPVFRELDYWGQGTQVTVSS | low polyreactivity
2 | QVQLVESGGGLVQAGGSLRLSCAASGRTFRIYAMGWYLQAPGKERELVAPISGRGGNTYYADSVKGRFTISRDNAKNTVYLHMNSLKPEDTAVYYCAADDATAYRVDGFKYDYWGQGTLVTVSS | high polyreactivity
3 | QVQLVESGGGLVQAGGSLRLSCAASGRTFRIYAMGWYRQAPGKERELVAAIRWSGGTTYYADSVKGGFTISRDNAKNTVYLQMNSLNPDDTAVYYCAADSTNRYDYWGQGTQVTVSS | high polyreactivity
4 | QVQLVESGGGLVQAGGSLRLSCAASGRTFRKNTMGWYRQAPGKEREFVATISSRGGSTFYADSVKGRFTISRDNAKNTVYLQMNSLKPEDTAVYYCNAVYRYSLKPIYDYWGQGTQVTVSS | high polyreactivity
5 | QVQLVESGGGLVQAGGSLRLSCAASGRTFRKYAMGGYRHAPGKEREFVASITWSGGSTYYADSVKGRFTISRDNAKNTVYLQMNSLKPEDTAVYFCAAESWFKYVYWGQGTQVTVSS | low polyreactivity
6 | QVQLVESGGGLVQAGGSLRLSCAASGRTFRKYAMGWYRQAPGKERELVAAINRGGTTKYADSVKGRFTISRDNAKNTVYLEMNSLKPEDTAVYYCAVDRQRAGYPKQYDSWGQGTQVTVSS | low polyreactivity
7 | QVQLVESGGGLVQAGGSLRLSCAASGRTFRKYTMGWYRQAPGKERELVAASASRGGSTYYADSVKGRFTISRDNAKNTVYLQMNSLKPEDTAVYYCATDYITPSSDGDYWGQGTQVTVSS | high polyreactivity
8 | QVQLVESGGGLVQAGGSLRLSCAASGRTFRLYAMGWYRQAPGKERELVAAITRGGRTNYADSVKGRFTISRDNAKNTVYLQMYSLKPEDTAVYYCARDFVAYGDDYWGQGTQVTVSS | low polyreactivity
9 | QVQLVESGGGLVQAGGSLRLSCAASGRTFRLYAMGWYRQAPGKERELVARISRGGSTYYADSVKGRFTISRDNAKNTVYLQMNSLKPEDTAVYYCAAEGWGLSHRYDYWGQGTQVTVSS | high polyreactivity
10 | QVQLVESGGGLVQAGGSLRLSCAASGRTFRNYAMGWYRQAPGKERELVAAIRSGVRTYYADSVKGRFTISRDNAKNTVYLQMNSLKPEDTAVYYCAVATGLLYKSHGYWGQGTQVTVSS | low polyreactivity
11 | QVQLVESGGGLVQAGGSLRLSCAASGRTFRNYAMGWYRQAPGKERELVAAISSGGRTNYADSVKGRFTISRDNAKNTVYLQMNSLKPEDTADYYCAVRRGAFSTYPGYNYWGQGTQVTVSS | high polyreactivity
12 | QVQLVESGGGLVQAGGSLRLSCAASGRTFRNYAMGWYRQAPGKERELVAGITSGGSTNYADSVKGRFTISRDNAKNTVYLQMNSLKPEDTAVYYCNAVRPFYWFWYYGYWGQGTQVTVSS | low polyreactivity
13 | QVQLVESGGGLVQAGGSLRLSCAASGRTFRPYAMGWYRPAPGKERELVAAITGGTRTYYADSVKGRFTISRDNAKNTVYLQMNSLKPEDTAVYYCAKGDFFSKHDYWGQGTQVTVSS | low polyreactivity
14 | QVQLVESGGGLVQAGGSLRLSCAASGRTFRPYAMGWYRQAPGKERELVAAISSRGSSTYYADSVKGRFTISRDNAKNTVYLQMNSLKPEDTAVYYCAARSYWGGLRYDYWGQGTQVTVSS | high polyreactivity
15 | QVQLVESGGGLVQAGGSLRLSCAASGRTFRPYAMGWYRQAPGKERELVAAITSGVSTYYADSVKGRFTISRDNAKNTVYLQMNSLKPEDTAVYYCARGYLRSYRWSYTTRMGYWVQGTQVTVSS | high polyreactivity
16 | QVQLVESGGGLVQAGGSLRLSCAASGRTFRPYAMGWYRQAPGKERELVARITSGGGRTYYADSVKGRFTISRDNAKNTVYLQMNSLKPEDTAVYYCNKAIYSLYRDGYTNFDYWGQGTQVTVSS | high polyreactivity
17 | QVQLVESGGGLVQAGGSLRLSCAASGRTFRPYAMGWYRQAPGKERELVAVISYRGGSTYYADSVKGRFTISRDNAKNTVYLQMNSLKPEDTAVYYCNAQAGWFSRLYYWGQGTQVTVSS | high polyreactivity
